According to patent US20240301052A1 (LANOVA MEDICINES DEVELOPMENT, published 2024):
Residue numbers refer to the chain shown, from its start.

B1: xi62C10B3D2 hIgG1 (antibody, V domains shown)
VH: QVHQQQSGPELVKPGASVRISCKASGYTFTSYYIHWVKQRPGQGLEWIGCIYPGNLFTKYNEKFKDKATLTADTSSTTAYMHLSSLTSEDSAVYFCARFLNWNAWYFDVWGAGTTVSVSS
VL: DVLMTQTPLSLPVSLGDQASISCRSSQSIEHSNGNTNLEWYLQKPGQSPRLLIYKVSNRFSGVPDRFSGSGSGTDFTLKITGVEAEDLGVYYCFQGSHFPWTFGGGTKLEIK
notes: chimeric, hIgG1
B2: xi7G10E11 hIgG1 (antibody, V domains shown)
VH: DVKLVESGGGLIKLGGSLKLSCAASGFTFSGYYMSWFRQTPEKRLELVAVINSNGGSTYYAVTVKGRFTISRDNAKNTLYLQMSSLKSEDTALYYCARHEGSQAWFAHWGQGTLVTVSA
VL: DIVMTQSHKFMSTSVGDRVSITCKASQDVTTAVAWYQQKPGQSPKLLIYWASTRHTGVPDRFTGSGSGTDYTLTISSVQAEDLALYYCQQHHSTPLTFGAGTKLELK
notes: chimeric, hIgG1
B3: xi67C9G11 hIgG1 (antibody, V domains shown)
VH: DVKLVESGGGLVKLGGSLKLSCAASGFTFSSYFMSWIRQTPEKRVDLVAVINSNGGSTYSPDTVKGRFTISRDNAKNTLYLQMTSLKSEDTALYYCARHFYSYDGAWFPYWGQGTLVTVSA
VL: B2 VL with S14L, T30S, A32S, Y71F, L96I, A100V
notes: chimeric, hIgG1
B4: xi25B11B9 hIgG1 (antibody, V domains shown)
VH: DVKLVESGGGLVRLGGSLKLSCAASGFTFSSHYMSWVRQTPKKRLELVATINSSGGNTYYPDTVKGRFTISRDNARNTLFLQMTSLKSEDTALYYCARQPINTVAYFDYWGQGTTLTVSS
VL: B2 VL with K9E, D17A, V29L, T56I, T69A, H91Y
notes: chimeric, hIgG1
B5: xi11F6H8 hIgG1 (antibody, V domains shown)
VH: EVQLQQSGPELVKPGASVKISCKTSGFTFTEYTMHWVKQSHGKSLEWIGGINPNNGISSYNQNFKGKATLTVDKSSSTAYMELRSLTSEDSTVYYCARCRYYDTSYYDMDYWGQGTSVTVSS
VL: DIQMTQTTSSLSASLGDRVTISCRASQDIRNFLNWYQQKPDGTVKLLIYYTSRLHSGVPSRFSGSGSGTDYSLTISNLEEEDIATYFCQQSNTLPWTFGGGTKLEIK
notes: chimeric, hIgG1
B6: xi20H2F1 hIgG1 (antibody, V domains shown)
VH: EVKLVESGGNLVKPGGSLKLSCAASGFTFSSYAMSWVRQTPEKRLEWVASISNGGTTYYPDSVKGRFTISRDVARNILYLQMTSLRSEDTAMYYCARTHYRDFVYWGQGTLVTVSA
VL: EIVLTQAAFSNPVTLGTSASISCRSSKSLLHSNGITYLYWYLQKPGQSPQLLIYQMSNLASGVPDRFSCSGSGTDFTLRISRVEAEDVGVYYCAQNLEFPWTFGGGTKLEIK
notes: chimeric, hIgG1
B7: 30H9B8F9.p1.z4 hIgG1 (antibody, V domains shown)
VH: QVQLVQSGAEVKKPGASVKVSCKASGYTFTTNNMHWVRQAPGQGLEWMGAIYPGSGATAYNQKFKGRVTMTRDTSTSTVYMELSSLRSEDTAVYYCASGMYGHGAMDYWGQGTLVTVSS
VL: DIVMTQSPSFLSASVGDRVTITCKASQDVGTAVAWYQQKPGKSPKLLIYWATTRHSGVPDRFTGSGSGTDFIFTISSVQPEDFATYFCQQYSSNPLTFGAGTKLEIK
notes: humanized hIgG1
B8: 30H9B8F9.p1.z16 hIgG1 (antibody, V domains shown)
VH: QVQLVQSGAEVVKPGASVKMSCKTSGYTFTTNNMHWVKQAPGQGLEWIGAIYPGSGATAYNQKFKGRATLTADKSTSTAYMELSSLRSEATAVYYCARGMYGHGAMDYWGQGTSVTVSS
VL: B7 VL
notes: humanized hIgG1
B9: 30H9B8F9.p1.z15 hIgG1 (antibody, V domains shown)
VH: B8 VH
VL: B7 VL with V3Q, T63S, D70E
notes: humanized hIgG1
B10: 30H9B8F9.p1.z14 hIgG1 (antibody, V domains shown)
VH: B8 VH
VL: B7 VL with V3Q, M4L, T63S, D70E, I72T, V78L, A100Q
notes: humanized hIgG1
B11: 30H9B8F9.p1.z7 hIgG1 (antibody, V domains shown)
VH: B7 VH with A24T, M48I, R72A, S98R
VL: B7 VL with V3Q, T63S, D70E
notes: humanized hIgG1
B12: 30H9B8F9.p1.z11 hIgG1 (antibody, V domains shown)
VH: B8 VH with M20V, K38R, A68V, S114L
VL: B7 VL with V3Q, T63S, D70E
notes: humanized hIgG1
B13: 30H9B8F9.p1.z8 hIgG1 (antibody, V domains shown)
VH: B7 VH with A24T, M48I, R72A, S98R
VL: B7 VL
notes: humanized hIgG1
B14: 30H9B8F9.p1.z10 hIgG1 (antibody, V domains shown)
VH: B8 VH with M20V, K38R, A68V, S114L
VL: B7 VL with V3Q, M4L, T63S, D70E, I72T, V78L, A100Q
notes: humanized hIgG1
B15: 30H9B8F9.p1.z12 hIgG1 (antibody, V domains shown)
VH: B8 VH with M20V, K38R, A68V, S114L
VL: B7 VL
notes: humanized hIgG1
B16: 63A11D5B4.p1.z6 hIgG1 (antibody, V domains shown)
VH: QVQLVQSGAEVKKPGASVKVSCKTSGYTFITYNMHWVRQAPGQGLEWIGAIYPGSGDTSYNQKFKGRVTMTADTSTSTVYMELSSLRSEDTAVYYCSISTIITTGAVDYWGQGTLVTVSS
VL: DIQMTQSPSSLSTSVGDRVTITCKASQDVGTAVAWYQQKPGKSPKLLIYWTSTRHTGVPSRFSGSGSGTDFTLIISSLQPEDVATYYCQQYSRIPLTFGGGTKVEIK
notes: humanized hIgG1
B17: 63A11D5B4.p1.z3 hIgG1 (antibody, V domains shown)
VH: B16 VH with T24A, I48M, A72R, S97A, I98S
VL: B16 VL with K42Q, S60D, S76R, Y87F
notes: humanized hIgG1
B18: 63A11D5B4.p1.z1 hIgG1 (antibody, V domains shown)
VH: B16 VH with T24A, I48M, A72R, S97A, I98S
VL: B16 VL with T13A, S43V, I74T
notes: humanized hIgG1
B19: 63A11D5B4.p1.z2 hIgG1 (antibody, V domains shown)
VH: B16 VH with T24A, I48M, A72R, S97A, I98S
VL: B16 VL
notes: humanized hIgG1
B20: 63A11D5B4.p1.z4 hIgG1 (antibody, V domains shown)
VH: B16 VH with T24A, I48M, A72R, S97A, I98S
VL: B16 VL with Q3V, K42Q, S60D, S63T, S76R, Y87F, G100S
notes: humanized hIgG1
B21: xi95H11A1D8VH-1 hIgG1 (antibody, V domains shown)
VH: QVQLQQPGAELVKPGASVKMSCKTSGYTFTTNNMHWVKQTPGQGLEWIGAIYPGNGATAYNQKFKGKATLTADKSSSTAYMQLSSLTSEASAVYYCARGMYGHGAMDYWGQGTSVIVSS
VL: DIVLTQSPATLSVTPGDSVSLSCRARQNIGNNLYWYQQKSNESPRLLIKYASQSISGIPSRFSGSGSGTDFTLTINSVETEDFGVYFCQQSFSWPLTFGAGTKLELK
notes: chimeric, hIgG1; the suffix VH-1 is not explained

target: T1, human SLC34A2 (human, UniProt O95436 1-690); assay: FACS, OVCAR3 cells
T1 construct: whole, on cells; also called human solute carrier 34 A2; NaPi2b
T1 sequence (looked up): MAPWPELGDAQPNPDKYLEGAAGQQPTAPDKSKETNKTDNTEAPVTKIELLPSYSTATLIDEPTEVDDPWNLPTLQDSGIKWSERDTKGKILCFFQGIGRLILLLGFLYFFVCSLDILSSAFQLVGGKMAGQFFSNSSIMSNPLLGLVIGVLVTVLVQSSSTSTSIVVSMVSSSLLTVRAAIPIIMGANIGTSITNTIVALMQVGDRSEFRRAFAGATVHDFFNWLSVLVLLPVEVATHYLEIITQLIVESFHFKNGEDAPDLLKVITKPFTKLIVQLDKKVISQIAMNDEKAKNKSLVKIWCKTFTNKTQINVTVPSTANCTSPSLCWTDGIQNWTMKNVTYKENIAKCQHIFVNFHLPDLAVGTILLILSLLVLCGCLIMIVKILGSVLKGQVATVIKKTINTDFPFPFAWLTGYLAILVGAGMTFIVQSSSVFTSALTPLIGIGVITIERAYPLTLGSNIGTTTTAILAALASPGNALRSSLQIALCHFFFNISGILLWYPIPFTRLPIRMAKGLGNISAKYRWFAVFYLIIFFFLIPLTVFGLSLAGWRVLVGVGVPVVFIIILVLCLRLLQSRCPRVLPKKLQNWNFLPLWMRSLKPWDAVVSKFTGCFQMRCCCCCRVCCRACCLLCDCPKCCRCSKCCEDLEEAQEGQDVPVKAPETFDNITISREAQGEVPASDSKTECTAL
Procedure: In this example, cell based binding of chimeric antibodies (hIgG1) prepared from the murine antibodies on human SLC34A2 expressing cells were assessed using flow cytometry.
(§1) Briefly, OVCAR3 cells or HEK293 cells expressing human SLC34A2 were incubated with chimeric antibodies (from 200 nM, 4 folds dilution, 8 points). After incubation at 4° C. for 60 minutes, the cells were washed with FACS buffer twice, then stained with fluorescent conjugated secondary antibody at 4° C. for 30 minutes. After that the cells were washed twice and analyzed by flow cytometry.

First: B1
Second: B2
The EC50 of the first is 240-fold higher: 408 nM for the first, 1.68 nM for the second.

Going from B3 to B4, the EC50 rises from 4.67 nM to 9.06 nM (1.9-fold).

Going from B5 to B6, the EC50 falls from 4.9 nM to 2.73 nM (1.8-fold). The second is the more potent here.

Compared with B1, B2 is higher in “Top (MFI)” value: 29500 MFI for the first, 39600 MFI for the second.

First: B3
Second: B4
The “Top (MFI)” value of the first is lower: 41000 MFI for the first, 42500 MFI for the second.

First: B5
Second: B6
The “Top (MFI)” value of the first is higher: 41300 MFI for the first, 26500 MFI for the second.

target: T1, human SLC34A2; assay: FACS, OVCAR3 cells; remark: another data set of the same source
Procedure: The binding of these humanized antibodies to OVCAR3 cells was evaluated as described above, and the results are shown in FIG. 12A-D and Tables 16A-D.

Compared with B7, B8 is 2-fold lower in EC50: 2.76 nM for the first, 1.41 nM for the second. The second is the more potent here.

B9 and B10 are within 1.5-fold of each other in EC50: 1.05 nM for the first, 1.31 nM for the second.

B11 and B12 are within 1.5-fold of each other in EC50: 1.69 nM for the first, 1.43 nM for the second.

B13 and B14 are within 1.5-fold of each other in EC50: 1.9 nM for the first, 1.93 nM for the second.

B15 gave an EC50 of 1.4 nM.

Going from B7 to B8, the “Top (MFI)” value rises from 20400 MFI to 26500 MFI.

First: B9
Second: B10
The “Top (MFI)” value of the first is lower: 26500 MFI for the first, 27300 MFI for the second.

First: B11
Second: B12
The “Top (MFI)” value of the first is lower: 26700 MFI for the first, 27000 MFI for the second.

Compared with B13, B14 is higher in “Top (MFI)” value: 26200 MFI for the first, 30700 MFI for the second.

B15 was tested, and the “Top (MFI)” value was 27600 MFI.

target: T1, human SLC34A2; assay: FACS, OVCAR3 cells; remark: another data set of the same source

First: B16
Second: B17
The EC50 of the first is 2.1-fold higher: 36.8 nM for the first, 17.9 nM for the second.

B18 and B19 are within 1.5-fold of each other in EC50: 19.6 nM for the first, 20.6 nM for the second.

B20 gave an EC50 of 18.1 nM.

Going from B16 to B17, the “Top (MFI)” value falls from 34600 MFI to 28600 MFI.

Going from B18 to B19, the “Top (MFI)” value rises from 28000 MFI to 28700 MFI.

With B20 the “Top (MFI)” value was 29000 MFI.

target: T1, human SLC34A2; assay: FACS, HEK293/human SLC34A2 cells
Procedure: as §1

Compared with B1, B2 is 220-fold lower in EC50: 378 nM for the first, 1.72 nM for the second.

B3 and B4 are within 1.5-fold of each other in EC50: 2.82 nM for the first, 2.51 nM for the second.

B5 and B6 are within 1.5-fold of each other in EC50: 1.92 nM for the first, 1.31 nM for the second.

Binder B21 has an EC50 of 63.4 nM.

Going from B1 to B2, the “Top (MFI)” value falls from 128000 MFI to 109000 MFI.

Going from B3 to B4, the “Top (MFI)” value falls from 107000 MFI to 106000 MFI.

First: B5
Second: B6
The “Top (MFI)” value of the first is higher: 111000 MFI for the first, 42000 MFI for the second.

With B21 the “Top (MFI)” value was 12700 MFI.
